The test deals with recombinant nucleoprotein derived from influenza virus subtype A H1N1 (Sino Biological, 40205-[change]) (influenza virus subtype A H1N1).

B1: VHH antibody consisting of the amino acid sequence represented by SEQ ID NO: 08 (VHH)
VHH: EVQLVESGGGLVQAGDSLRLSCAASGRTFINLDMGWFRQPPGKEREYVAAITRNGAITSYADSAKGRFTISRDNAKNTVSLEMNSLKPEDTGVYYCAAYSISNYGSGWYKPDYWGQGAQVTVSS
The EC50 (read off the curve) is the concentration that produces a half-maximal response. As to B1, the half-maximal effective concentration (EC50 (read off the curve)) came to 0.2 µg/mL.

The values above are taken from patent publication US20170349646A1.
